From publication PMC7765622, “The Cardioprotective PKA-Mediated Hsp20 Phosphorylation Modulates Protein Associations Regulating Cytoskeletal Dynamics” (International Journal of Molecular Sciences, 2020)
Positions count from the first letter of the chain named. Names may count otherwise.

T1: MBP-14-3-3 (amino acids 1-247), full length 14-3-3 gamma (human, UniProt P61981 1-247)
T1 construct: 14-3-3 gamma, human, amino acids 1-247, cloned by RT-PCR on human muscle cDNA into pMALc2x; also called in vitro expressed 14-3-3; source: recombinant, expression as previously described [58]
T1 sequence (looked up): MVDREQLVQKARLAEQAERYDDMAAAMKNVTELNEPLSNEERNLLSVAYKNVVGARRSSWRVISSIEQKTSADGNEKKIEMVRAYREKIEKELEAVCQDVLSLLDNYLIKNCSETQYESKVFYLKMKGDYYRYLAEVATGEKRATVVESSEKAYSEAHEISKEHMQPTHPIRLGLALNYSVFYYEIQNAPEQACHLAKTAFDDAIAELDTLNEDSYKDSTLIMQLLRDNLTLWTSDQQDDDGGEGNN

T2: GST-CFL2 (amino acids 1-166), non-phosphorylated (Homo sapiens (Human), UniProt Q9Y281)
T2 chain: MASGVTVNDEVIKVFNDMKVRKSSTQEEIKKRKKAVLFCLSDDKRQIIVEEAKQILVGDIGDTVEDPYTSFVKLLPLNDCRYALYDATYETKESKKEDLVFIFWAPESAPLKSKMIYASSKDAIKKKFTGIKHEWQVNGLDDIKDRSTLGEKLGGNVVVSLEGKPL

T3: GST-CFL2 (amino acids 1-55) (Homo sapiens (Human), UniProt Q9Y281)
T3 chain: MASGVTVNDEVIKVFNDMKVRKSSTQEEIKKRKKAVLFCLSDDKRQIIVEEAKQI

B1: MBP-14-3-3 (amino acids 115-247) (domain or fragment, human, UniProt P61981 115-247, looked up)
chain: TQYESKVFYLKMKGDYYRYLAEVATGEKRATVVESSEKAYSEAHEISKEHMQPTHPIRLGLALNYSVFYYEIQNAPEQACHLAKTAFDDAIAELDTLNEDSYKDSTLIMQLLRDNLTLWTSDQQDDDGGEGNN
notes: 14-3-3 gamma, human, amino acids 115-247, in pMALc2x; also called MBP-14-3-3 C-terminal deletion construct; C-terminal fragment of 14-3-3; source: recombinant, expression as previously described [58]
B2: GST-Hsp20 (amino acids 1-160), wild type, phosphorylated in vitro by PKA at Ser16 (natural protein, human, UniProt O14558 1-160, looked up)
chain: MEIPVPVQPSWLRRASAPLPGLSAPGRLFDQRFGEGLLEAELAALCPTTLAPYYLRAPSVALPVAQVPTDPGHFSVLLDVKHFSPEEIAVKVVGEHVEVHARHEERPDEHGFVAREFHRRYRLPPGVDPAAVTSALSPEGVLSIQAAPASAQAPPPAAAK
modifications: phosphoserine at 16 (PKA in vitro)
notes: Hsp20 (HspB6), amino acids 1-160, wild type; construct previously reported [16,53,57]; Same construct as m7, after PKA treatment; also called phosphorylated GST-Hsp20; GST-p-Hsp20; source: recombinant, purified on Glutathione Sepharose 4B; phosphorylated in vitro with PKA catalytic subunit (New England Biolabs), 30 °C, 1 h
B3: GST-Hsp20-S16D (natural protein, human, UniProt O14558 1-160, looked up)
chain: B2 chain with S16D
notes: Hsp20 (HspB6), amino acids 1-160, made by PCR mutagenesis on the WT Hsp20 GST-tagged plasmid; Phosphomimetic at Ser16; also called GST-p-Hsp20-S16D (after PKA treatment); source: recombinant, purified (Glutathione Sepharose 4B), eluted; used untreated or PKA-treated
B4: MBP-14-3-3 (amino acids 1-120) (protein)
chain: MVDREQLVQKARLAEQAERYDDMAAAMKNVTELNEPLSNEERNLLSVAYKNVVGARRSSWRVISSIEQKTSADGNEKKIEMVRAYREKIEKELEAVCQDVLSLLDNYLIKNCSETQYESK
B5: MBP-14-3-3 (amino acids 1-247), full length 14-3-3 gamma (protein)
chain: T1 sequence (looked up)

How the values were obtained:
[1] = biological target: B2; assay: far-Western, overlay or dot blot; purified GST fusion proteins separated by SDS-PAGE and transferred to nitrocellulose; membranes incubated with MBP-14-3-3 fusion protein (or MBP as control); detection with anti-MBP; conditions: both partners purified
[2] = biological target: T1, MBP-14-3-3 (amino acids 1-247), full …; assay: pull-down; same samples as a4: eluted GST-Hsp20 proteins (PKA-treated or not) bound to MBP-14-3-3 on amylose resin, in the presence of myc-CFL2 HEK 293 lysate; blot with phospho-Hsp20 or GST antibody; conditions: both partners purified
[3] = biological target: T2, GST-CFL2 (amino acids 1-166), …; assay: blot overlay
[4] = biological target: T3, GST-CFL2 (amino acids 1-55); assay: blot overlay

Binder	binding result [2]	binding result [3]	further results
B1	–	–	binding result [1]: binds
B2	binds	–	–
B3	binds	–	–
B4	–	binds	–
B5	–	binds	binding result [4]: binds
